Results from the Human Domainome abundance scans (Beltran et al. 2025).
± gives the uncertainty stated by the source.

Experiment: abundance fitness (aPCA) (normalised: wild type 0, dead -1); higher = more abundant; growth selection in yeast, the domain comes from the species named
Conditions: Homo sapiens

Substance	abundance fitness
Ventral anterior homeobox 1 F119A, Q5SQQ9	-0.74 ± 0.21
Ventral anterior homeobox 1 F119E, Q5SQQ9	-1.16 ± 0.3
Ventral anterior homeobox 1 F119G, Q5SQQ9	-0.857 ± 0.16
Ventral anterior homeobox 1 F119K, Q5SQQ9	-0.837 ± 0.31
Ventral anterior homeobox 1 F119N, Q5SQQ9	-0.658 ± 0.32
Ventral anterior homeobox 1 F119P, Q5SQQ9	-0.978 ± 0.34
Ventral anterior homeobox 1 F119Q, Q5SQQ9	-0.727 ± 0.39
Ventral anterior homeobox 1 F119R, Q5SQQ9	-0.88 ± 0.17
Ventral anterior homeobox 1 F119S, Q5SQQ9	-0.64 ± 0.18
Ventral anterior homeobox 1 F119T, Q5SQQ9	-0.856 ± 0.29
Ventral anterior homeobox 1 L115D, Q5SQQ9	-0.822 ± 0.4
Ventral anterior homeobox 1 L115E, Q5SQQ9	-0.719 ± 0.29
Ventral anterior homeobox 1 L115G, Q5SQQ9	-0.763 ± 0.16
Ventral anterior homeobox 1 L115K, Q5SQQ9	-0.821 ± 0.41
Ventral anterior homeobox 1 L115N, Q5SQQ9	-0.637 ± 0.35
Ventral anterior homeobox 1 L115R, Q5SQQ9	-0.918 ± 0.16
Ventral anterior homeobox 1 Q111A, Q5SQQ9	-0.226 ± 0.13
Ventral anterior homeobox 1 Q111C, Q5SQQ9	-0.214 ± 0.18
Ventral anterior homeobox 1 Q111D, Q5SQQ9	-0.564 ± 0.18
Ventral anterior homeobox 1 Q111E, Q5SQQ9	-0.393 ± 0.17

Substance	abundance fitness
Ventral anterior homeobox 1 Q111F, Q5SQQ9	-0.954 ± 0.32
Ventral anterior homeobox 1 Q111G, Q5SQQ9	-0.715 ± 0.11
Ventral anterior homeobox 1 Q111H, Q5SQQ9	-0.355 ± 0.17
Ventral anterior homeobox 1 Q111I, Q5SQQ9	-0.231 ± 0.27
Ventral anterior homeobox 1 Q111K, Q5SQQ9	-0.599 ± 0.28
Ventral anterior homeobox 1 Q111L, Q5SQQ9	-0.807 ± 0.17
Ventral anterior homeobox 1 Q111M, Q5SQQ9	-0.31 ± 0.19
Ventral anterior homeobox 1 Q111N, Q5SQQ9	-0.262 ± 0.24
Ventral anterior homeobox 1 Q111P, Q5SQQ9	-0.716 ± 0.21
Ventral anterior homeobox 1 Q111R, Q5SQQ9	-0.732 ± 0.12
Ventral anterior homeobox 1 Q111S, Q5SQQ9	-0.727 ± 0.14
Ventral anterior homeobox 1 Q111T, Q5SQQ9	-0.068 ± 0.16
Ventral anterior homeobox 1 Q111V, Q5SQQ9	-0.048 ± 0.12
Ventral anterior homeobox 1 Y113D, Q5SQQ9	0.287 ± 0.2
Ventral anterior homeobox 1 Y113E, Q5SQQ9	0.209 ± 0.17
Ventral anterior homeobox 1 Y113G, Q5SQQ9	0.01 ± 0.093
Ventral anterior homeobox 1 Y113H, Q5SQQ9	-0.096 ± 0.25
Ventral anterior homeobox 1 Y113K, Q5SQQ9	-0.004 ± 0.24
Ventral anterior homeobox 1 Y113N, Q5SQQ9	0.168 ± 0.38
Ventral anterior homeobox 1 Y113R, Q5SQQ9	-0.012 ± 0.097
